Experimental data reported in paper PMC10995199, “Architecture and regulation of filamentous human cystathionine beta-synthase” (Nature Communications, 2024).

Target: the molecule itself
Assay: SEC + native gel or EMSA; control constructs in analytical Superose 6 gel filtration and clear-native and blue-native PAGE (Supplementary Fig. 2); self-association

B1: human cystathionine beta-synthase catalytic domain alone (CBS^CD, residues 1–413) (domain or fragment, UniProt P35520 1-413, looked up)
chain: MPSETPQAEVGPTGCPHRSGPHSAKGSLEKGSPEDKEAKEPLWIRPDAPSRCTWQLGRPASESPHHHTAPAKSPKILPDILKKIGDTPMVRINKIGKKFGLKCELLAKCEFFNAGGSVKDRISLRMIEDAERDGTLKPGDTIIEPTSGNTGIGLALAAAVRGYRCIIVMPEKMSSEKVDVLRALGAEIVRTPTNARFDSPESHVGVAWRLKNEIPNSHILDQYRNASNPLAHYDTTADEILQQCDGKLDMLVASVGTGGTITGIARKLKEKCPGCRIIGVDPEGSILAEPEELNQTEQTTYEVEGIGYDFIPTVLDRTVVDKWFKSNDEEAFTFARMLIAQEGLLCGGSAGSTVAVAVKAAQELQEGQRCVVILPDSVRNYMTKFLSDRWMLQKGFLKEEDLTEKKPWWWHLR
notes: source: E. coli Rosetta (DE3), purified
B1 was tested. Which “stoichiometry N” value did it give?
The value was 2.
